± gives the uncertainty stated by the source.
B1: Zinc finger homeobox protein 3, residues 2147 to 2202; numbered along this chain, Q15911 (parent)
chain: RPRTRITDDQLRVLRQYFDINNSPSEEQIKEMADKSGLPQKVIKHWFRNTLFKERQ

Variants of: B1
Assay: abundance fitness (aPCA) (normalised: wild type 0, dead -1); higher = more abundant; growth selection in yeast, the domain comes from the species named
Details: Homo sapiens

Abundance fitness of substitutions, site by site:
W46: N -0.561 ± 0.19; Q -0.576 ± 0.14; A -0.63 ± 0.13; P -0.812 ± 0.2; D -0.361 ± 0.41; F -0.163 ± 0.18; R -0.812 ± 0.093; T -0.555 ± 0.16; V -0.177 ± 0.11; S -0.83 ± 0.13; E -0.348 ± 0.17; M -0.429 ± 0.15; C -0.524 ± 0.14; Y -0.439 ± 0.21; K -0.738 ± 0.14; I -0.118 ± 0.2
I43: Q -1 ± 0.17; F -0.864 ± 0.39; R -1.21 ± 0.12; G -1 ± 0.088; E -0.767 ± 0.12; V -0.015 ± 0.09; C -0.349 ± 0.2; K -0.945 ± 0.21; A -0.534 ± 0.089; S -0.987 ± 0.14; T -0.54 ± 0.13; D -1.12 ± 0.23; P -1.05 ± 0.21; M -0.706 ± 0.16; Y -1.08 ± 0.34; N -0.959 ± 0.22; L -0.443 ± 0.097
G37: H -0.361 ± 0.16; S -0.151 ± 0.087; F -0.504 ± 0.15; E -0.155 ± 0.11; L -0.278 ± 0.088; M -0.341 ± 0.12; K -0.048 ± 0.11; V -0.427 ± 0.082; Y -0.424 ± 0.15; D -0.103 ± 0.1; I -0.762 ± 0.26; R -0.071 ± 0.077; N -0.124 ± 0.16; C -0.037 ± 0.13; W -0.535 ± 0.1; Q -0.245 ± 0.1; A -0.176 ± 0.11; T -0.342 ± 0.11
T50: C -0.314 ± 0.17; L -0.17 ± 0.11; D -0.264 ± 0.18; K 0.094 ± 0.17; N -0.044 ± 0.15; M -0.051 ± 0.24; I -0.262 ± 0.15; A -0.11 ± 0.1; F -0.341 ± 0.2; H -0.048 ± 0.2; E -0.047 ± 0.12; G -0.187 ± 0.086
K35: P -0.998 ± 0.14; H -0.536 ± 0.15; C -0.382 ± 0.12; G -0.402 ± 0.084; Q 0.014 ± 0.14; N -0.138 ± 0.14; Y -0.357 ± 0.12; M -0.216 ± 0.11; S -0.222 ± 0.08; T -0.189 ± 0.091; F -0.336 ± 0.14; E -0.168 ± 0.11; W -0.346 ± 0.092; D -0.297 ± 0.13; A -0.279 ± 0.097; L -0.163 ± 0.08; I -0.329 ± 0.14; R -0.175 ± 0.075
H45: P -0.377 ± 0.11; Y -0.036 ± 0.12; I -0.09 ± 0.13; E 0.106 ± 0.099; G 0.007 ± 0.085; W 0.028 ± 0.099; V 0.015 ± 0.078; R -0.052 ± 0.091; D 0.109 ± 0.12; Q 0.085 ± 0.1; M 0.029 ± 0.1; F 0.009 ± 0.14; K 0.141 ± 0.11; S 0.028 ± 0.086; A 0.039 ± 0.077; C -0.194 ± 0.12; L -0.032 ± 0.079
P39: W -0.564 ± 0.1; G -0.016 ± 0.068; V -0.119 ± 0.079; C -0.192 ± 0.15; L -0.329 ± 0.078; E 0.009 ± 0.082; D -0.015 ± 0.14; H -0.079 ± 0.18; A -0.068 ± 0.078; Y -0.284 ± 0.34; M -0.258 ± 0.097; Q -0.167 ± 0.11; I -0.199 ± 0.16; N -0.249 ± 0.22; R -0.156 ± 0.082; S 0.045 ± 0.08; F -0.746 ± 0.22; T -0.031 ± 0.099
M32: E -0.987 ± 0.13; N -1.08 ± 0.29; T -0.584 ± 0.14; V -0.164 ± 0.092; L -0.181 ± 0.083; R -1.18 ± 0.089; C -0.407 ± 0.12; D -0.466 ± 0.19; I -0.191 ± 0.21; Q -0.774 ± 0.12; F -0.383 ± 0.23; S -0.882 ± 0.12; Y -0.317 ± 0.15; P -1.15 ± 0.2; A -0.338 ± 0.097; K -1.03 ± 0.16
D34: V -0.063 ± 0.074; F 0.013 ± 0.18; L -0.123 ± 0.081; A 0.071 ± 0.084; R -0.086 ± 0.068; Y -0.253 ± 0.12; M -0.097 ± 0.11; N 0.082 ± 0.15; E 0.207 ± 0.1; S -0.002 ± 0.078; I -0.088 ± 0.19; P -0.582 ± 0.11; H 0.061 ± 0.19; W -0.318 ± 0.093; G -0.011 ± 0.07; K 0.02 ± 0.13; T 0.053 ± 0.11; C -0.039 ± 0.1; Q -0.112 ± 0.12
F47: N -0.526 ± 0.24; Y -0.273 ± 0.19; C -0.169 ± 0.11; V -0.17 ± 0.087; P -0.912 ± 0.16; R -0.858 ± 0.1; W -0.188 ± 0.11; M -0.242 ± 0.17; S -0.632 ± 0.093; A -0.482 ± 0.094; K -0.774 ± 0.17; L -0.211 ± 0.09; Q -0.801 ± 0.18; D -0.819 ± 0.19; H -0.699 ± 0.16; I -0.265 ± 0.18
N49: K 0.06 ± 0.13; T -0.039 ± 0.12; L -0.117 ± 0.098; V -0.053 ± 0.1; M -0.093 ± 0.13; I -0.236 ± 0.17; A -0.061 ± 0.11; S -0.06 ± 0.11; P -0.65 ± 0.19; F -0.194 ± 0.16; E 0.153 ± 0.16; W -0.014 ± 0.15; D 0.001 ± 0.15; H -0.451 ± 0.29; C 0.082 ± 0.13; G -0.124 ± 0.096; R 0.02 ± 0.086; Q -0.075 ± 0.15; Y -0.145 ± 0.19
A33: H 0.254 ± 0.4; D -0.879 ± 0.33; K -0.357 ± 0.2; S -0.054 ± 0.14; W -0.556 ± 0.16; N -0.21 ± 0.25; R -0.163 ± 0.096; L -0.511 ± 0.15; E 0.038 ± 0.18; V -0.186 ± 0.15; P -0.908 ± 0.24; Q -0.185 ± 0.22; G -0.212 ± 0.12; C -0.158 ± 0.16; Y -0.299 ± 0.25; M -0.083 ± 0.25
Q40: T 0.054 ± 0.099; D -0.06 ± 0.19; R 0.022 ± 0.071; I -0.162 ± 0.15; W -0.068 ± 0.092; Y 0.088 ± 0.32; G -0.073 ± 0.074; N 0.102 ± 0.31; H 0.025 ± 0.18; F -0.172 ± 0.23; K 0.193 ± 0.12; P 0.121 ± 0.1; S 0.014 ± 0.091; E 0.105 ± 0.13; C -0.118 ± 0.11; M -0.103 ± 0.11; L 0.072 ± 0.083; V -0.046 ± 0.084
V42: T -0.027 ± 0.13; D 0.094 ± 0.15; M -0.218 ± 0.15; L -0.103 ± 0.092; S -0.139 ± 0.09; C 0.058 ± 0.1; A -0.098 ± 0.11; R -0.028 ± 0.09; W -0.119 ± 0.095; H -0.374 ± 0.19; F -0.293 ± 0.18; P -0.618 ± 0.18; Y -0.18 ± 0.14; N -0.15 ± 0.17; I -0.074 ± 0.12; K -0.051 ± 0.15
S36: L 0.019 ± 0.073; I 0.078 ± 0.12; Y -0.178 ± 0.12; E -0.14 ± 0.11; P -0.853 ± 0.1; D -0.669 ± 0.16; N 0.018 ± 0.15; F -0.099 ± 0.1; V -0.031 ± 0.085; W -0.182 ± 0.084; H -0.057 ± 0.12; A 0.045 ± 0.086; K -0.706 ± 0.12; R -0.828 ± 0.077; T 0.127 ± 0.079; C -0.156 ± 0.1; G -0.449 ± 0.08; M -0.157 ± 0.093
K41: A -0.056 ± 0.12; M -0.011 ± 0.13; G 0.108 ± 0.079; I -0.022 ± 0.2; R -0.142 ± 0.083; F -0.274 ± 0.25; V -0.108 ± 0.091; L -0.004 ± 0.094; Y -0.389 ± 0.21; D -0.054 ± 0.19; C 0.126 ± 0.14; N -0.053 ± 0.16; P -0.259 ± 0.12; Q 0.095 ± 0.15; W -0.361 ± 0.12; E 0.01 ± 0.11; S -0.02 ± 0.11
R48: M -0.06 ± 0.11; G -0.118 ± 0.068; N 0.102 ± 0.21; K 0.107 ± 0.13; W -0.306 ± 0.089; Y -0.413 ± 0.21; I -0.009 ± 0.14; P -0.461 ± 0.14; H -0.064 ± 0.21; Q 0.008 ± 0.12; F -0.023 ± 0.16; C -0.446 ± 0.14; A -0.042 ± 0.091; E 0.057 ± 0.12; T -0.07 ± 0.12; S -0.121 ± 0.09
K44: F -0.175 ± 0.16; W -0.176 ± 0.1; D -0.08 ± 0.16; M -0.2 ± 0.14; G -0.11 ± 0.082; T -0.246 ± 0.11; A -0.096 ± 0.097; V -0.107 ± 0.084; Y -0.354 ± 0.18; L -0.03 ± 0.088; N -0.334 ± 0.19; H -0.131 ± 0.2; E -0.146 ± 0.12; S -0.214 ± 0.12; I -0.102 ± 0.15; R -0.069 ± 0.081
E31: H -0.168 ± 0.16; P -1.03 ± 0.15; I -0.252 ± 0.17; N -0.399 ± 0.17; Y -0.448 ± 0.15; V -0.079 ± 0.083; Q -0.507 ± 0.16; M -0.133 ± 0.16; T -0.011 ± 0.11; S -0.196 ± 0.091; K -0.017 ± 0.16; R -0.282 ± 0.076; L -0.259 ± 0.09; W -0.404 ± 0.11
L38: M -0.302 ± 0.11; Q -0.649 ± 0.13; C -0.143 ± 0.14; E -0.706 ± 0.11; V -0.008 ± 0.08; R -0.971 ± 0.077; D -1.02 ± 0.18; F -0.762 ± 0.18; Y -1.05 ± 0.33; T -0.449 ± 0.12; G -0.857 ± 0.075; N -1.15 ± 0.28; I -0.124 ± 0.22; S -0.712 ± 0.095; K -1.04 ± 0.15; P -0.858 ± 0.13; H -1.1 ± 0.38
